Assay [1] deals with HBsAg (G145R) particles (hepatitis B virus). Nature of the assay: Auszyme II EIA kit, S-antigenicity of purified particles.
The target in assay [2] is HBsAg particles (hepatitis B virus surface antigen L protein particles expressed in recombinant yeast carrying pGLDLIIP39-RcT) (hepatitis B virus). The assay is described as above.

As for “Auszyme II EIA kit (Dainabot Co. Ltd.) (antibody)”, the S-antigenicity in assay [1] was found to be 0.2; in assay [2], 1.

The values are drawn from patent publication US7597905.
